Results: the supplement of paper PMC5998384

Assays:
HeLa Kyoto [1] = assay: thermal stability score vs G1/S (z-score of summed log2 fold changes over temperatures); higher = more thermally stable than in G1/S
HeLa Kyoto [2] = assay: melting temperature (median over replicates), in situ; higher = more thermally stable
HeLa Kyoto [3] = assay: solubility in G1/S (NP-40 vs SDS abundance) (log2 ratio); higher = more soluble; details: cell cycle stage: G1/S
HeLa Kyoto [4] = assay: solubility change mitosis vs G1/S (difference of NP-40 vs SDS log2 ratios) (log2 ratio difference); higher = more soluble in mitosis
[5] = cell cycle stage: early G1 (4.5 h after nocodazole release)
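For melting temperature (median over replicates), in situ in this document: HeLa Kyoto cells synchronized by double thymidine or nocodazole block, proteins quantified by TMT10plex mass spectrometry, three independent biological replicates.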
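For solubility change mitosis vs G1/S (difference of NP-40 vs SDS log2 ratios) in this document: synchronized HeLa Kyoto cells (double thymidine block for G1/S, nocodazole release for mitosis), protein amounts in NP-40 versus SDS lysates quantified by mass spectrometry, three biological replicates.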
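For solubility in G1/S (NP-40 vs SDS abundance) in this document: HeLa Kyoto cells arrested at G1/S by double thymidine block, proteins quantified by TMT10plex mass spectrometry in mild NP-40 versus SDS extracts, three biological replicates.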
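For thermal stability score vs G1/S (z-score of summed log2 fold changes over temperatures) in this document: synchronized HeLa Kyoto cells, proteins quantified by TMT10plex mass spectrometry, three biological replicates, mitosis taken 0.5 h after nocodazole release, G1/S directly after double thymidine block.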

Substance | thermal stability score (HeLa Kyoto [1]; [5]) | thermal stability score (HeLa Kyoto [1]; cell cycle stage: mitosis) | melting temperature (HeLa Kyoto [2]; cell cycle stage: G1/S) [°C] | melting temperature (HeLa Kyoto [2]; cell cycle stage: mitosis) [°C] | solubility in G1/S (log2) (HeLa Kyoto [3]) | solubility change mitosis (log2) (HeLa Kyoto [4])
MGSGARFPSGTLRVRWLLLLGLVGPVLGAARPGFQQTSHLSSYEIITPWRLTRERREAPRPYSKQVSYVIQAEGKEHIIHLERNKDLLPEDFVVYTYNKEGTLITDHPNIQNHCHYRGYVEGVHNSSIALSDCFGLRGLLHLENASYGIEPLQNSSHFEHIIYRMDDVYKEPLKCGVSNKDIEKETAKDEEEEPPSMTQLLRRRRAVLPQTRYVELFIVVDKERYDMMGRNQTAVREEMILLANYLDSMYIMLNIRIVLVGLEIWTNGNLINIVGGAGDVLGNFVQWREKFLITRRRHDSAQLVLKKGFGGTAGMAFVGTVCSRSHAGGINVFGQITVETFASIVAHELGHNLGMNHDDGRDCSCGAKSCIMNSGASGSRNFSSCSAEDFEKLTLNKGGNCLLNIPKPDEAYSAPSCGNKLVDAGEECDCGTPKECELDPCCEGSTCKLKSFAECAYGDCCKDCRFLPGGTLCRGKTSECDVPEYCNGSSQFCQPDVFIQNGYPCQNNKAYCYNGMCQYYDAQCQVIFGSKAKAAPKDCFIEVNSKGDRFGNCGFSGNEYKKCATGNALCGKLQCENVQEIPVFGIVPAIIQTPSRGTKCWGVDFQLGSDVPDPGMVNEGTKCGAGKICRNFQCVDASVLNYDCDVQKKCHGHGVCNSNKNCHCENGWAPPNCETKGYGGSVDSGPTYNEMNTALRDGLLVFFFLIVPLIVCAIFIFIKRDQLWRSYFRKKRSQTYESDGKNQANPSRQPGSVPRHVSPVTPPREVPIYANRFAVPTYAAKQPQQFPSRPPPPQPKVSSQGNLIPARPAPAPPLYSSLT [ADAM9] | -2.54 | -2.91 | 57.3 | 56.8 | -0.486 | -0.00657
MRGAGAILRPAARGARDLNPRRDISSWLAQWFPRTPARSVVALKTPIKVELVAGKTYRWCVCGRSKKQPFCDGSHFFQRTGLSPLKFKAQETRMVALCTCKATQRPPYCDGTHRSERVQKAEVGSPL [CISD3] | -0.749 | -0.997 | 50.8 |  | -0.205 | 0.0825
MQSNKTFNLEKQNHTPRKHHQHHHQQQHHQQQQQQPPPPPIPANGQQASSQNEGLTIDLKNFRKPGEKTFTQRSRLFVGNLPPDITEEEMRKLFEKYGKAGEVFIHKDKGFGFIRLETRTLAEIAKVELDNMPLRGKQLRVRFACHSASLTVRNLPQYVSNELLEEAFSVFGQVERAVVIVDDRGRPSGKGIVEFSGKPAARKALDRCSEGSFLLTTFPRPVTVEPMDQLDDEEGLPEKLVIKNQQFHKEREQPPRFAQPGSFEYEYAMRWKALIEMEKQQQDQVDRNIKEAREKLEMEMEAARHEHQVMLMRQDLMRRQEELRRMEELHNQEVQKRKQLELRQEEERRRREEEMRRQQEEMMRRQQEGFKGTFPDAREQEIRMGQMAMGGAMGINNRGAMPPAPVPAGTPAPPGPATMMPDGTLGLTPPTTERFGQAATMEGIGAIGGTPPAFNRAAPGAEFAPNKRRRY [NONO] | 4.71 | 11.4 | 46.6 | 47.8 | -0.113 | 0.501
MDASLEKIADPTLAEMGKNLKEAVKMLEDSQRRTEEENGKKLISGDIPGPLQGSGQDMVSILQLVQNLMHGDEDEEPQSPRIQNIGEQGHMALLGHSLGAYISTLDKEKLRKLTTRILSDTTLWLCRIFRYENGCAYFHEEEREGLAKICRLAIHSRYEDFVVDGFNVLYNKKPVIYLSAAARPGLGQYLCNQLGLPFPCLCRVPCNTVFGSQHQMDVAFLEKLIKDDIERGRLPLLLVANAGTAAVGHTDKIGRLKELCEQYGIWLHVEGVNLATLALGYVSSSVLAAAKCDSMTMTPGPWLGLPAVPAVTLYKHDDPALTLVAGLTSNKPTDKLRALPLWLSLQYLGLDGFVERIKHACQLSQRLQESLKKVNYIKILVEDELSSPVVVFRFFQELPGSDPVFKAVPVPNMTPSGVGRERHSCDALNRWLGEQLKQLVPASGLTVMDLEAEGTCLRFSPLMTAAVLGTRGEDVDQLVACIESKLPVLCCTLQLREEFKQEVEATAGLLYVDDPNWSGIGVVRYEHANDDKSSLKSDPEGENIHAGLLKKLNELESDLTFKIGPEYKSMKSCLYVGMASDNVDAAELVETIAATAREIEENSRLLENMTEVVRKGIQEAQVELQKASEERLLEEGVLRQIPVVGSVLNWFSPVQALQKGRTFNLTAGSLESTEPIYVYKAQGAGVTLPPTPSGSRTKQRLPGQKPFKRSLRGSDALSETSSVSHIEDLEKVERLSSGPEQITLEASSTEGHPGAPSPQHTDQTEAFQKGVPHPEDDHSQVEGPESLR [PDXDC1] | 1.35 | 2.61 | 47.8 | 48.8 | 0.342 | -0.152
MEDAGGGEETPAPEAPHPPQLAPPEEQGLLFQEETIDLGGDEFGSEENETASEGSSPLADKLNEHMMESVLISDSPNSEGDAGDLGRVRDEAEPGGEGDPGPEPAGTPSPSGEADGDCAPEDAAPSSGGAPRQDAAREVPGSEAARPEQEPPVAEPVPVCTIFSQRAPPASGDGFEPQMVKSPSFGGASEASARTPPQVVQPSPSLSTFFGDTAASHSLASDFFDSFTTSAFISVSNPGAGSPAPASPPPLAVPGTEGRPEPVAMRGPQAAAPPASPEPFAHIQAVFAGSDDPFATALSMSEMDRRNDAWLPGEATRGVLRAVATQQRGAVFVDKENLTMPGLRFDNIQGDAVKDLMLRFLGEKAAAKRQVLNADSVEQSFVGLKQLISCRNWRAAVDLCGRLLTAHGQGYGKSGLLTSHTTDSLQLWFVRLALLVKLGLFQNAEMEFEPFGNLDQPDLYYEYYPHVYPGRRGSMVPFSMRILHAELQQYLGNPQESLDRLHKVKTVCSKILANLEQGLAEDGGMSSVTQEGRQASIRLWRSRLGRVMYSMANCLLLMKDYVLAVEAYHSVIKYYPEQEPQLLSGIGRISLQIGDIKTAEKYFQDVEKVTQKLDGLQGKIMVLMNSAFLHLGQNNFAEAHRFFTEILRMDPRNAVANNNAAVCLLYLGKLKDSLRQLEAMVQQDPRHYLHESVLFNLTTMYELESSRSMQKKQALLEAVAGKEGDSFNTQCLKLA [TRAPPC12] | 0.55 | 0.59 | 50.1 | 49.2 | 0.188 | -0.258
MDCYTANWNPLGDSAFYRKYELYSMDWDLKEELRDCLVAAAPYGGPIALLRNPWRKEKAASVRPVLDIYSASGMPLASLLWKSGPVVSLGWSAEEELLCVQEDGAVLVYGLHGDFRRHFSMGNEVLQNRVLDARIFHTEFGSGVAILTGAHRFTLSANVGDLKLRRMPEVPGLQSAPSCWTVLCQDRVAHILLAVGPDLYLLDHAACSAVTPPGLAPGVSSFLQMAVSFTYRHLALFTDTGYIWMGTASLKEKLCEFNCNIRAPPKQMVWCSRPRSKERAVVVAWERRLMVVGDAPESIQFVLDEDSYLVPELDGVRIFSRSTHEFLHEVPAASEEIFKIASMAPGALLLEAQKEYEKESQKADEYLREIQELGQLTQAVQQCIEAAGHEHQPDMQKSLLRAASFGKCFLDRFPPDSFVHMCQDLRVLNAVRDYHIGIPLTYSQYKQLTIQVLLDRLVLRRLYPLAIQICEYLRLPEVQGVSRILAHWACYKVQQKDVSDEDVARAINQKLGDTPGVSYSDIAARAYGCGRTELAIKLLEYEPRSGEQVPLLLKMKRSKLALSKAIESGDTDLVFTVLLHLKNELNRGDFFMTLRNQPMALSLYRQFCKHQELETLKDLYNQDDNHQELGSFHIRASYAAEERIEGRVAALQTAADAFYKAKNEFAAKATEDQMRLLRLQRRLEDELGGQFLDLSLHDTVTTLILGGHNKRAEQLARDFRIPDKRLWWLKLTALADLEDWEELEKFSKSKKSPIGYLPFVEICMKQHNKYEAKKYASRVGPEQKVKALLLVGDVAQAADVAIEHRNEAELSLVLSHCTGATDGATADKIQRARAQAQKK [VPS16] | 0.278 | 0.681 | 49.9 | 50.1 | -0.206 | -0.12
RAB1A | -1.51 | -4.28 | 60.3 | 60.6 | 0.166 | -0.093
MSSPSPGKRRMDTDVVKLIESKHEVTILGGLNEFVVKFYGPQGTPYEGGVWKVRVDLPDKYPFKSPSIGFMNKIFHPNIDEASGTVCLDVINQTWTALYDLTNIFESFLPQLLAYPNPIDPLNGDAAAMYLHRPEEYKQKIKEYIQKYATEEALKEQEEGTGDSSSESSMSDFSEDEAQDMEL [UBE2H] | 0.268 | 0.877 | 52 | 52.4 | -0.0237 | -0.126
MSYTPGVGGDPAQLAQRISSNIQKITQCSVEIQRTLNQLGTPQDSPELRQQLQQKQQYTNQLAKETDKYIKEFGSLPTTPSEQRQRKIQKDRLVAEFTTSLTNFQKVQRQAAEREKEFVARVRASSRVSGSFPEDSSKERNLVSWESQTQPQVQVQDEEITEDDLRLIHERESSIRQLEADIMDINEIFKDLGMMIHEQGDVIDSIEANVENAEVHVQQANQQLSRAADYQRKSRKTLCIIILILVIGVAIISLIIWGLNH [STX7] | -1.45 | -2.01 | 54.1 | 55 | 0.637 | 0.264
